For test [1], the target named is HLA-A*02:06. Kind of test: IEDB peptide-MHC binding, purified MHC/direct/fluorescence; filed as Kd, often an IC50 or EC50 that approximates it; ≥ and ≤ were set here for values at or beyond the usual limits of such assays. As to conditions: source organism: Salmonella enterica subsp. enterica serovar Typhimurium.
The target in test [2] is HLA-A*02:01. The test is described as above. Particulars: source organism: Salmonella enterica subsp. enterica serovar Typhimurium.
The target of test [3] is HLA-B*27:03. The test is described as above. As to conditions: source organism: Salmonella enterica subsp. enterica serovar Typhimurium.
In test [4] the target is HLA-A*02:12. The test is described as above. As to conditions: source organism: Salmonella enterica subsp. enterica serovar Typhimurium.
Test [5] deals with HLA-A*03:01. The description is as above. Particulars: source organism: Salmonella enterica subsp. enterica serovar Typhimurium.
Test [6] addresses HLA-B*46:01. The description is as above. As to conditions: source organism: Salmonella enterica subsp. enterica serovar Typhimurium.
The target of test [7] is HLA-B*18:01. The test is described as above. Particulars: source organism: Salmonella enterica subsp. enterica serovar Typhimurium.
The target of test [8] is HLA-B*57:01. The description is as above. As to conditions: source organism: Salmonella enterica subsp. enterica serovar Typhimurium.
The target of test [9] is HLA-B*15:01. Described as above. Particulars: source organism: Salmonella enterica subsp. enterica serovar Typhimurium.
Test [10] has as its target HLA-A*02:01. Kind of test: IEDB peptide-MHC binding, purified MHC/competitive/fluorescence; ≥ and ≤ were set here for values at or beyond the usual limits of such assays.
Test [11] addresses HLA-B*40:02. The test is described as above.
Test [12] deals with HLA-A*25:01. Described as above.
Test [13] deals with HLA-B*08:01. The description is as above.
In test [14] the target is HLA-A*01:01. The test is described as above.
Test [15] deals with HLA-B*07:02. The test is described as above.
Test [16] concerns the target HLA-B*14:02. Described as above.
Test [17] deals with HLA-A*24:02. The test is described as above.
For test [18], the target named is HLA-A*11:01. Described as above.
Test [19] addresses HLA-B*35:01. The description is as above.
Test [20] concerns the target HLA-A*68:02. The test is described as above.
Test [21] concerns the target HLA-B*51:01. Described as above.
For test [22], the target named is HLA-B*37:01. The test is described as above.
In test [23] the target is HLA-A*03:01. The test is described as above.
For test [24], the target named is HLA-B*58:01. The description is as above.
Test [25] concerns the target HLA-B*18:01. The test is described as above.
Test [26] concerns the target HLA-A*29:02. Described as above.
The target of test [27] is HLA-A*31:01. Described as above.
Test [28] deals with HLA-B*44:03. The test is described as above.
In test [29] the target is HLA-B*53:01. The test is described as above.
Test [30] concerns the target HLA-A*02:11. The experiment in a line: IEDB peptide-MHC binding, purified MHC/competitive/fluorescence; filed as Kd, often an IC50 or EC50 that approximates it; ≥ and ≤ were set here for values at or beyond the usual limits of such assays. Particulars: source organism: Pseudomonas sp. MIS38.
The target in test [31] is HLA-A*69:01. The test is described as above. As to conditions: source organism: Pseudomonas sp. MIS38.
Test [32] has as its target HLA-A*02:06. The description is as above. As to conditions: source organism: Pseudomonas sp. MIS38.
Test [33] has as its target HLA-A*02:01. The description is as above. Particulars: source organism: Pseudomonas sp. MIS38.
Test [34] concerns the target HLA-A*01:01. The test is described as above. As to conditions: source organism: Pseudomonas sp. MIS38.
Test [35] deals with HLA-B*07:02. Described as above. Particulars: source organism: Pseudomonas sp. MIS38.
The target of test [36] is HLA-A*24:02. Described as above. As to conditions: source organism: Pseudomonas sp. MIS38.
Test [37] addresses HLA-A*02:19. Described as above. Particulars: source organism: Pseudomonas sp. MIS38.
Test [38] deals with HLA-A*30:01. Described as above. Particulars: source organism: Pseudomonas sp. MIS38.
Test [39] deals with HLA-A*11:01. The test is described as above. Particulars: source organism: Pseudomonas sp. MIS38.
Test [40] addresses HLA-A*02:12. The description is as above. Particulars: source organism: Pseudomonas sp. MIS38.
Test [41] has as its target HLA-A*02:16. Described as above. Particulars: source organism: Pseudomonas sp. MIS38.
Test [42] addresses HLA-A*03:01. The description is as above. As to conditions: source organism: Pseudomonas sp. MIS38.
Test [43] concerns the target HLA-A*02:03. Described as above. Particulars: source organism: Pseudomonas sp. MIS38.
Test [44] addresses HLA-B*58:01. The test is described as above. Particulars: source organism: Pseudomonas sp. MIS38.
Test [45] has as its target HLA-B*40:01. The description is as above. As to conditions: source organism: Pseudomonas sp. MIS38.
The target in test [46] is HLA-B*27:05. The test is described as above. Particulars: source organism: Pseudomonas sp. MIS38.
The target of test [47] is HLA-B*15:01. Described as above. Particulars: source organism: Pseudomonas sp. MIS38.
For test [48], the target named is HLA-A*02:50. Described as above. Particulars: source organism: Pseudomonas sp. MIS38.
Where [49] appears, read: source organism: Gorilla gorilla gorilla.
[50] abbreviates: source organism: Monodelphis domestica.

Bounds are passed on as bounds.

What is called Kd is a measure of binding affinity in units of concentration. In the case of QVNDVLHSV, the dissociation constant (Kd) in [1] is 0.003 µM; in [2], 0.041 µM; in test [3], at least 20 µM; in [4], 0.091 µM; in [5] it was at least 20 µM; in [6] it was at least 20 µM. In addition, the Kd in test [7], in [8] and in test [9] was at least 20 µM throughout.

The IC50 is the concentration needed to halve the response being measured. A lower IC50 goes with greater potency. Consider RYSHWTKL, for which the IC50 in [10] (setting [49]) was at least 20 µM; in test [11] (setting [49]), at least 20 µM; in test [12] (setting [49]), at least 20 µM; in test [13] (setting [49]), at least 20 µM; in [14] (setting [49]), at least 20 µM; in test [15] (setting [49]) it was 17.3 µM. Moreover, the IC50 in test [16] (setting [49]) is at least 20 µM; in test [17] (setting [49]), 0.161 µM; in [18] (setting [49]), at least 20 µM; in test [19] (setting [49]) it was at least 20 µM; in test [20] (setting [49]), at least 20 µM; in test [21] (setting [49]) it was at least 20 µM. For the same sequence, the IC50 in test [22] (setting [49]), in [23] (setting [49]), in test [24] (setting [49]), in test [25] (setting [49]), in test [26] (setting [49]) and in test [27] (setting [49]) was at least 20 µM each time. Also, the IC50 in [28] (setting [49]) and in test [29] (setting [49]) was at least 20 µM each time.

Regarding YMLKDSAPT, the dissociation constant Kd in [30] was 0.0094 µM; in test [31], 2 µM; in test [32], 0.0023 µM; in test [33], 0.0602 µM; in test [34], at least 20 µM; in test [35] it was at least 20 µM. Besides, the Kd was at least 20 µM in test [36]; 0.0114 µM in test [37]; at least 20 µM in test [38]; at least 20 µM in test [39]; 0.0019 µM in [40]; 0.0005 µM in [41]. The dissociation constant Kd was at least 20 µM in test [42]; 0.0042 µM in test [43]; at least 20 µM in test [44]; at least 20 µM in test [45]; at least 20 µM in test [46]; 3.35 µM in test [47]. This sequence had an equilibrium dissociation constant (Kd) in [48] of 0.03 µM.

Regarding YSLEYFQFVKK, the IC50 in [10] (setting [50]), in test [11] (setting [50]), in test [12] (setting [50]), in test [13] (setting [50]), in [14] (setting [50]) and in [15] (setting [50]) was at least 20 µM in each case. Further, the IC50 in test [16] (setting [50]) is at least 20 µM; in test [17] (setting [50]), at least 20 µM; in test [18] (setting [50]) it was 2.9 µM; in [19] (setting [50]) it was at least 20 µM; in test [20] (setting [50]), at least 20 µM; in test [21] (setting [50]), at least 20 µM. Moreover, the IC50 in test [22] (setting [50]), in [23] (setting [50]), in [24] (setting [50]), in test [25] (setting [50]), in test [26] (setting [50]) and in test [27] (setting [50]) was at least 20 µM throughout. The IC50 in test [28] (setting [50]) and in test [29] (setting [50]) was at least 20 µM in each case.

Values taken from the Immune Epitope Database (IEDB).
